From patent US11279747 (UNIVERSITAT ZURICH, dated 2022)
Positions count from the first letter of the chain named.

T1: mouse Pirb (mouse, UniProt P97484 25-642, limits assumed)
T1 construct: Bought protein coated on the ELISA plate; also called PirB (murine homologue to LILRB)
T1 sequence (looked up): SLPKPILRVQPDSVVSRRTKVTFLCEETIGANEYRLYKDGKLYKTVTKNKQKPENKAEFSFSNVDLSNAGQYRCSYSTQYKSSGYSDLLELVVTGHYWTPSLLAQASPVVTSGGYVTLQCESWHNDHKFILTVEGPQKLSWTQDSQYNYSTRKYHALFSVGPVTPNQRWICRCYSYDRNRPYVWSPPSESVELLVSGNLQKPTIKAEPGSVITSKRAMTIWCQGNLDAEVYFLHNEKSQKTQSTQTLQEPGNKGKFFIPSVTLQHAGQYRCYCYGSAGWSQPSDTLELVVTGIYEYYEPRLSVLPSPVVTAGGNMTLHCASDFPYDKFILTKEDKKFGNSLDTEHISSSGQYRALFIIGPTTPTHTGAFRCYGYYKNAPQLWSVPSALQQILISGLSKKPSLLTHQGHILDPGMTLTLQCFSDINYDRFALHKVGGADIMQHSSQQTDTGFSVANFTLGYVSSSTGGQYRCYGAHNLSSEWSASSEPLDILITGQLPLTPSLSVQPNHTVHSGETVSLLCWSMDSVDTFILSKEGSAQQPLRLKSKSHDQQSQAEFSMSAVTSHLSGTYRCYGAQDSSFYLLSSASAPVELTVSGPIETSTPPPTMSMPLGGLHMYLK

B1: C082-Fc (Fc fusion)
chain: CSHSMRYFYTAVSRPGRGEPRFIAVGYVDDTQFVQFDSDAASPRGEPRAPWVEQEGPEYWDRETQKYKRQAQTDRVSLRNLRGYYNQSEAGSHTLQRMYGCDLGPDGRLLRGYNQFAYDGKDYIALNEDLRSWTAADTAAQITQRKWEAARTAEQLRAYLEGTCVEWLRRYLENGKKTLQRAEHPKTHVTHHPVSDHEATLRCWALGFYPAEITLTWQRDGEDQTQDTELVETRPAGDGTFQKWAAVVVPSGEEQRYTCHVQHEGLPEPLTLRW
notes: also called HLA2-Fc; HLA-C08 open conformer; not shown: human IgG4 Fc (human IgG4-Fc vector, InvivoGen)
B2: C122-Fc (Fc fusion)
chain: B1 chain with Q35R, T73A, N114D, F116S, T152E, L156W, K177E
notes: also called HLA2-Fc; HLA-C12 open conformer; not shown: human IgG4 Fc (human IgG4-Fc vector, InvivoGen)
B3: A302-Fc (Fc fusion)
chain: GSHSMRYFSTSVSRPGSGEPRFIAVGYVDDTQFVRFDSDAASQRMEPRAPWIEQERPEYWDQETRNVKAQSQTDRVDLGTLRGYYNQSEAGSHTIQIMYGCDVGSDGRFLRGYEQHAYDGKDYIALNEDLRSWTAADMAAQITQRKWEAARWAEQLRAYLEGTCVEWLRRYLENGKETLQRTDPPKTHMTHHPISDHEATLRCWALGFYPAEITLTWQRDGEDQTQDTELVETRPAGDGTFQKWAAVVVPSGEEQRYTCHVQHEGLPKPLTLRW
notes: also called HLA2-Fc; HLA-A30 open conformer; not shown: human IgG4 Fc (human IgG4-Fc vector, InvivoGen)
B4: B272-Fc (Fc fusion)
chain: GSHSMRYFHTSVSRPGRGEPRFITVGYVDDTLFVRFDSDAASPREEPRAPWIEQEGPEYWDRETQICKAKAQTDREDLRTLLRYYNQSEAGSHTLQNMYGCDVGPDGRLLRGYHQDAYDGKDYIALNEDLSSWTAADTAAQITQRKWEAARVAEQLRAYLEGECVEWLRRYLENGKETLQRADPPKTHVTHHPISDHEATLRCWALGFYPAEITLTWQRDGEDQTQDTELVETRPAGDRTFQKWAAVVVPSGEEQRYTCHVQHEGLPKPLTLRW
notes: also called B27052-Fc; HLA2-Fc; not shown: human IgG4 Fc (human IgG4-Fc vector, InvivoGen)
B5: A252-Fc (Fc fusion)
chain: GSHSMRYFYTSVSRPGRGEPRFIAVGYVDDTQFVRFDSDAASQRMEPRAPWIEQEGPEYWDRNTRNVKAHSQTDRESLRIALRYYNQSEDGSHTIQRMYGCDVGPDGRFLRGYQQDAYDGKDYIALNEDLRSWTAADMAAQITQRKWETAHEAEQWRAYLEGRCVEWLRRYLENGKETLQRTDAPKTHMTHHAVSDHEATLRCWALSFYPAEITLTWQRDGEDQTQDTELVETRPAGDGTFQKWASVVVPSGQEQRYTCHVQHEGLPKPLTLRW
notes: also called HLA2-Fc; HLA-A25 open conformer; not shown: human IgG4 Fc (human IgG4-Fc vector, InvivoGen)
B6: B582-Fc (Fc fusion)
chain: GSHSMRYFYTAMSRPGRGEPRFIAVGYVDDTQFVRFDSDAASPRTEPRAPWIEQEGPEYWDGETRNMKASAQTYRENLRIALRYYNQSEAGSHIIQRMYGCDLGPDGRLLRGHDQSAYDGKDYIALNEDLSSWTAADTAAQITQRKWEAARVAEQLRAYLEGLCVEWLRRYLENGKETLQRADPPKTHVTHHPVSDHEATLRCWALGFYPAEITLTWQRDGEDQTQDTELVETRPAGDRTFQKWAAVVVPSGEEQRYTCHVQHEGLPKPLTLRW
notes: also called HLA2-Fc; HLA-B58 open conformer; not shown: human IgG4 Fc (human IgG4-Fc vector, InvivoGen)
B7: B572-Fc (Fc fusion)
chain: B6 chain with T45M, E46A, R97V, L103V, V194I
notes: also called HLA2-Fc; HLA-B57 open conformer; not shown: human IgG4 Fc (human IgG4-Fc vector, InvivoGen)
B8: B532-Fc (Fc fusion)
chain: B6 chain with G62R, E63N, R65Q, N66I, M67F, A69T, S70N, A71T
notes: also called HLA2-Fc; HLA-B53 open conformer; not shown: human IgG4 Fc (human IgG4-Fc vector, InvivoGen)
B9: human KIR3DL2 (receptor, UniProt P43630 22-340, looked up)
chain: LMGGQDKPFLSARPSTVVPRGGHVALQCHYRRGFNNFMLYKEDRSHVPIFHGRIFQESFIMGPVTPAHAGTYRCRGSRPHSLTGWSAPSNPLVIMVTGNHRKPSLLAHPGPLLKSGETVILQCWSDVMFEHFFLHREGISEDPSRLVGQIHDGVSKANFSIGPLMPVLAGTYRCYGSVPHSPYQLSAPSDPLDIVITGLYEKPSLSAQPGPTVQAGENVTLSCSSWSSYDIYHLSREGEAHERRLRAVPKVNRTFQADFPLGPATHGGTYRCFGSFRALPCVWSNSSDPLLVSVTGNPSSSWPSPTEPSSKSGICRHLH
notes: Bought protein coated on the ELISA plate; also called hu KIR3DL2

Each binder was assayed against T2, human KIR3DL1 (human, UniProt P43629 22-340, limits assumed) (assay: ELISA (FIG. 5A)).
T2 construct: Bought protein coated on the ELISA plate; also called hu KIR3DL1
T2 sequence (P43629 22-340 limits assumed): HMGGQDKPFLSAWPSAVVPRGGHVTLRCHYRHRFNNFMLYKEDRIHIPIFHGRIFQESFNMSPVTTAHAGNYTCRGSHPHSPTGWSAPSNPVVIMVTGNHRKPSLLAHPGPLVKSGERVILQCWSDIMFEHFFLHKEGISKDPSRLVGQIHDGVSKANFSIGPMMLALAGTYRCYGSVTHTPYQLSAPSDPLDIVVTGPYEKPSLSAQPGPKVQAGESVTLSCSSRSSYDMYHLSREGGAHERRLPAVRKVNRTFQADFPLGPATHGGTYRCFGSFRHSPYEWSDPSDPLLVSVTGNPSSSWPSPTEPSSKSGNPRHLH
Method: (§1) A) hu KIR3DL1, B) hu KIR3DL2, and C) hu KIR3DL3 are expressed in NK cells and subpopulations of T cells. D) LILRB1, and E) LILRB2 expressed mostly in myeloid cells, F) PirB (murine homologue to LILRB) and G) PTPRJ (on leukocytes is preferentially expressed in MDSCs cells and activated T cells) Figure 5:
(§2) Competition ELISA assays were performed using Maxisorp (Nunc, Switzerland) 96 well plates coated with 10 μg/mL of selected leukocyte receptors (human KIR3DL1, human KIR3DL2, human KIR3DL3, human LILRB1, human LILRB2, human PTPRJ and mouse Pirb) purchased from Creative Biomart. Receptors were incubated for ON 4° C., blocked with 5% milk powder-TBS 2 hrs. HLA_2-Fc selected constructs (A25_2-Fc, A30_2-Fc, B2705_2-Fc, B53_2-Fc, B57_2-Fc, B58_2-Fc, C08_2-F, and C12_2-Fc) and their controls (A25-β2m-Fc, A30-β2m-Fc, B2705-β2m-Fc, B53-β2m-Fc, B57-β2m-Fc, B58-β2m-Fc, C08-β2m-Fc and C12-β2m-Fc) and isotype IgG4 were added at 10 μg/mL for 2 hrs RT. HRP-conjugated antibodies against human Fc were used as detectors.
B1: binds.
B2: binds.
B3: binds.

The binders below were run against T3, human LILRB2 (human, UniProt Q8N423 22-458, limits assumed) (assay: ELISA (FIG. 5E)).
T3 construct: Bought protein coated on the ELISA plate
T3 sequence (Q8N423 22-458 limits assumed): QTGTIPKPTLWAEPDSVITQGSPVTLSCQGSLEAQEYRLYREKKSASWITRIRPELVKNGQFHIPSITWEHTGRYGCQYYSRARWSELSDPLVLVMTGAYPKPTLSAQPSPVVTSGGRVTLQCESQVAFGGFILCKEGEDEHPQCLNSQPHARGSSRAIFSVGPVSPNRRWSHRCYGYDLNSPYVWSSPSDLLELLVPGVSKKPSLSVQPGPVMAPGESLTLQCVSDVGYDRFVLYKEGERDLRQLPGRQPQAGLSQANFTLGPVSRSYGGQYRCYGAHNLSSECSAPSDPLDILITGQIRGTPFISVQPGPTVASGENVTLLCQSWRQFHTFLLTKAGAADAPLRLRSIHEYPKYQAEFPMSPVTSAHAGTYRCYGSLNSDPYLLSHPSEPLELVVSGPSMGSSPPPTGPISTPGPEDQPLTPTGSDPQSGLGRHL
Method: as §1, §2
B1: binds.
B2: binds.

What follows are binders tested against B9 (assay: ELISA (FIG. 5B)).
Method: as §1, §2
B1: binds.
B2: binds.
B3: binds.

What follows are binders tested against T1, mouse Pirb (assay: ELISA (FIG. 5F)).
Method: as §1, §2
B1: binds.
B2: binds.

These binders were tested against B9 (assay: ELISA, receptor coated at 10 µg/mL, HLA2-Fc at 10 µg/mL, anti-human Fc-HRP).
Method: as §2
B4: binds.
B5: binds.
B6: binds.
B7: binds.
B8: binds.

The binders below were run against T4, human KIR3DL3 (human, UniProt Q8N743 26-322, limits assumed) in the same assay as above.
T4 construct: Bought protein coated on the ELISA plate; also called hu KIR3DL3
T4 sequence (Q8N743 26-322 limits assumed): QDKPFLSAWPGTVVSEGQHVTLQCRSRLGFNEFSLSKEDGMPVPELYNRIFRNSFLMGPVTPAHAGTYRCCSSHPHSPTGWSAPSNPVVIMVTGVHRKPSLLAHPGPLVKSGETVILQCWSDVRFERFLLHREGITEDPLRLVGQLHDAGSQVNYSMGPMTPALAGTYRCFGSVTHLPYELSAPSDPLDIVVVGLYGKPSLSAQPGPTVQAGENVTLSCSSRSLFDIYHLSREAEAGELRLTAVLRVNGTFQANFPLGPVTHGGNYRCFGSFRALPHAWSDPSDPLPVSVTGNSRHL
Method: as §2
B4: binds.
B5: binds.
B6: binds.
B7: binds.
B8: binds.
B3: binds.

Each binder was assayed against T3, human LILRB2 in the same assay as above.
Method: as §2
B4: binds.
B5: binds.
B6: binds.
B7: binds.
B8: binds.
B3: binds.

These binders were tested against T1, mouse Pirb in the same assay as above.
Method: as §2
B4: binds.
B5: binds.
B6: binds.
B7: binds.
B8: binds.
B3: binds.

The binders below were run against T2, human KIR3DL1 in the same assay as above.
Method: as §2
B4: binds.
B5: binds.
B6: binds.
B7: binds.
B8: binds.

The binders below were run against T5, human LILRB1 (human, UniProt Q8NHL6 24-458, limits assumed) in the same assay as above.
T5 construct: Bought protein coated on the ELISA plate
T5 sequence (Q8NHL6 24-458 limits assumed): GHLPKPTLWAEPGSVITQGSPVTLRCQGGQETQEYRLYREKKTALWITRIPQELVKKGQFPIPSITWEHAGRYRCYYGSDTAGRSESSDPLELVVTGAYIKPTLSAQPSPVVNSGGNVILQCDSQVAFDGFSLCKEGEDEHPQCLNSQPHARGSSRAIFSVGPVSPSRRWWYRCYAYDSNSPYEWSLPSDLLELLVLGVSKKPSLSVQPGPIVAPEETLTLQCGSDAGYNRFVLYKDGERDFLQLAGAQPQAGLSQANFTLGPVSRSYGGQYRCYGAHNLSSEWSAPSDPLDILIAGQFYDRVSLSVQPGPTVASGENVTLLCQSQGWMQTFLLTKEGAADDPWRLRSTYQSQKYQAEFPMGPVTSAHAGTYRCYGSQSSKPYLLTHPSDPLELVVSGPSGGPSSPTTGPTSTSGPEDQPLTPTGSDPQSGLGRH
Method: as §2
B4: binds.
B5: binds.
B6: binds.
B7: binds.
B8: binds.
B3: binds.

What follows are binders tested against T6, B53-β2m-Fc (human, UniProt P61769 21-119, limits assumed) (assay: ELISA, receptor coated at 10 µg/mL, anti-human Fc-HRP).
T6 construct: HLA-Fc heavy chain with beta2m, made in CHO cells; also called HLA-β2m-Fc; control MHC-Ia heterotrimer; not shown: human IgG4 Fc (human IgG4-Fc vector, InvivoGen)
T6 sequence (P61769 21-119 limits assumed): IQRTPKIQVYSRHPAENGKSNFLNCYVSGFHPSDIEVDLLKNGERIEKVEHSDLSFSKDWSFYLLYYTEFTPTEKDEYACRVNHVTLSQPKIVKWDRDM
Method: as §2
B9: no binding (tested: 10 µg/mL).

The binders below were run against T7, B58-β2m-Fc (human, UniProt P61769 21-119, limits assumed) in the same assay as above.
T7 construct: HLA-Fc heavy chain with beta2m, made in CHO cells; also called HLA-β2m-Fc; control MHC-Ia heterotrimer; not shown: human IgG4 Fc (human IgG4-Fc vector, InvivoGen)
T7 sequence (P61769 21-119 limits assumed): as above
Method: as §2
B9: no binding (tested: 10 µg/mL).

These binders were tested against T8, B27-β2m-Fc (human, UniProt P61769 21-119) in the same assay as above.
T8 construct: HLA-Fc heavy chain with beta2m, made in CHO cells; also called B2705-β2m-Fc; HLA-β2m-Fc; not shown: human IgG4 Fc (human IgG4-Fc vector, InvivoGen)
T8 sequence (P61769 21-119 limits assumed): as above
Method: as §2
B9: no binding (tested: 10 µg/mL).

These binders were tested against T9, A30-β2m-Fc (human, UniProt P61769 21-119) in the same assay as above.
T9 construct: HLA-Fc heavy chain with beta2m, made in CHO cells; also called HLA-β2m-Fc; control MHC-Ia heterotrimer; not shown: human IgG4 Fc (human IgG4-Fc vector, InvivoGen)
T9 sequence (P61769 21-119 limits assumed): as above
Method: as §2
B9: no binding (tested: 10 µg/mL).

What follows are binders tested against T10, A25-β2m-Fc (human, UniProt P61769 21-119, limits assumed) in the same assay as above.
T10 construct: HLA-Fc heavy chain with beta2m, made in CHO cells; also called HLA-β2m-Fc; control MHC-Ia heterotrimer; not shown: human IgG4 Fc (human IgG4-Fc vector, InvivoGen)
T10 sequence (P61769 21-119 limits assumed): as above
Method: as §2
B9: no binding (tested: 10 µg/mL).

The binders below were run against T11, B57-β2m-Fc (human, UniProt P61769 21-119, limits assumed) in the same assay as above.
T11 construct: HLA-Fc heavy chain with beta2m, made in CHO cells; also called HLA-β2m-Fc; control MHC-Ia heterotrimer; not shown: human IgG4 Fc (human IgG4-Fc vector, InvivoGen)
T11 sequence (P61769 21-119 limits assumed): as above
Method: as §2
B9: no binding (tested: 10 µg/mL).

These binders were tested against T5, human LILRB1 (assay: ELISA (FIG. 5D)).
Method: as §1, §2
B1: binds.
B2: binds.

Each binder was assayed against T4, human KIR3DL3 (assay: ELISA (FIG. 5C)).
Method: as §1, §2
B1: binds.
B2: binds.
